First the molecules themselves.
B1: recombinant hnRNPG RGG1mut (natural protein, human, UniProt P38159 1-391, looked up)
chain: MVEADRPGKLFIGGLNTETNEKALEAVFGKYGRIVEVLLMKDRETNKSRGFAFVTFESPADAKDAARDMNGKSLDGKAIKVEQATKPSFESGRRGPPPPPRSRGPPRGLAGGAGGSGGTAGPPSAGGHMDDGGYSMNFNMSSSRGPLPVKRGPPPRSGGPPPKRSAPSGPVRSSSGMGGRAPVSRGRDSYGGPPRREPLPSRRDVYLSPRDDGYSTKDSYSSRDYPSSRDTRDYAPPPRDYTYRDYGHSSSRDDYPSRGYSDRDGYGRDRDYSDHPSGGSYRDSYESYGNSRSAPPTRGPPPSYGGSSRYDDYSSSRDGYGGSRDSYSSSRSDLYSSGRDRVGRQERGLPPSMERGYPPPRDSYSSSSRGAPRGGGRGGSRSDRGGGRSRY
B2: recombinant hnRNPG RGG2mut (natural protein, human, UniProt P38159 1-391, looked up)
chain: B1 chain with A110R, A113R, A120R, A125R, R369A, R373A, R377A
B3: recombinant hnRNPG RRMmut (natural protein, human, UniProt P38159 1-391, looked up)
chain: B1 chain with K9A, F11A, R49A, F51A, F53A, A110R, A113R, A120R, A125R

Substitutions are numbered along the chain they refer to.

The data set deals with the molecule itself. In words: dynamic light scattering.
B1: the binding result was “binds”.
For B2, the binding result is reported as “binds”.
For B3, the binding result is recorded as “binds”.
